Test results as given in US20100137208A1, “INTRATUMORALLY ADMINISTERED LACTOFERRIN IN THE TREATMENT OF MALIGNANTNEOPLASMS AND OTHER HYPERPROLIFERATIVE DISEASES” (priority 2002, published 2010).
“And” between values parts separate entries of the source, which are not always exact repeats. Equal values may be shown once. Marks after values point to notes of the source that are not given here.

Experiments:
[1] = tested on: GM-CSF; test: GM-CSF production in small intestine after oral rhLF (ELISA); format: in vivo, mice; conditions: oral 300 mg/kg/day for three days
Description: Recombinant human lactoferrin or placebo were orally administered to mice, and the production of GM-CSF in the small intestine was measured.
Mice (5 animals per group) were treated for three days daily with 300 mg/kg/day of rhLF. For a control, mice were only administered the pharmaceutical carrier. Twenty-four hours following administration of the LF or placebo for 3 days, animals were and the small intestinal tissue was removed for further analysis. Small intestinal epithelium was homogenized using a lysis buffer consisting of PBS, 1% Nonidet P-40, 0.5% sodium deoxycholate, and 0.1% sodium dodecyl sulphate containing 10 μg/ml PhenylMetheylsulfonyl fluoride. Homogenate was centrifuged at 15,000 rpm for 10 minutes and the supernatant stored at −80 C till it was tested for GM-CSF levels using an ELISA kit.

[2] = tested on: murine squamous carcinoma cell line (SCCVII); test: SCCVII floor-of-mouth tumor growth, oral rhLF and/or cisplatin; format: in vivo, C3H mice; conditions: rhLF 200 mg/Kg oral once daily days 5-12, no cisplatin
Description: A murine squamous carcinoma cell line (SCCVII) was injected into the floor of the mouth through the neck skin of immunocompetent C3H mice (Day 0). […] Tumors were measured in three dimensions with calipers.
Tumor-bearing mice were randomized into a control group and seven groups receiving rhLF and/or cisplatin. RhLF (4 mg; 200 mg/Kg) was administered once daily by oral gavage for 8 days on days 5 through 12. Cisplatin was administered as a single dose of 5 mg/Kg given intraperitoneally either at the start of rhLF (day 5), in the middle (day 8) or at the end (day 12) of rhLF therapy. Animals were sacrificed on day 12 post-implantation and the residual tumor masses were measured and processed for later additional analyses.
A murine squamous carcinoma cell line (SCCVII) was injected into the floor of the mouth through the neck skin of immunocompetent C3H mice (Day 0) as described in Example 6. On Day 5 days after initial implantation, tumors were measured for the baseline, then treated with either cisplatin (Day 8, i.p., 5 mg/kg) alone or cisplatin plus three doses of oral rhLF (daily by gavage for 7-8 days on days 5 through 11/12). Animals were sacrificed on Day 11/12 and tumors measured.

[3] = tested on: O12 human oropharyngeal squamous cell carcinoma tumor cells; test: Intratumoral rhLF in O12 tumors in nude mice; format: in vivo, athymic nude mice
Description: O12 human oropharyngeal squamous cell carcinoma tumor cells were injected to the right flank of athymic nude mice. Recombinant human lactoferrin and vehicle controls were dosed via intratumoral injection. Each animal was administered different concentrations of rhLF in 50 μL doses consisting of four separate injections of approximately 12.5 μL of the dose, at different directions and angles (approximately S/N/E/W) to ensure that the dose was distributed evenly throughout the tumor (fanning).
In this study, rhLF was administered directly into the tumor. Each animal was tracked daily for tumor growth by external caliper measurements of the protruding tumor.

[4] = tested on: YAC targets; test: NK activity ex vivo after oral rhLF (LDH release test); format: in vivo, Balb/c naïve mice; conditions: for % Cytotoxicity Final (NK activity): oral 300 mg/kg/day 3 days, spleen NK cells day 4
Description: Balb/c naïve mice were treated orally with rhLF or placebo once a day for 3 days (see Table 4).
On day 4, mice were sacrificed and spleens were collected. NK cells were separated using a magnetic bead cell sorting assay (MACS anti-NK-DX5) and counted. Cells were then tested in vitro for NK-activity against YAC targets using a lactate dehydrogenase (LDH) release test.
Balb/c naïve mice were treated orally with rhLF or placebo once a day for 3 days. One day later (day 4), mice were sacrificed and spleens collected. NK cells were separated using a magnetic bead cell sorting assay (MACS anti-NK-DX5) and counted. Cells were then tested in vitro for NK-activity against YAC targets using a lactate dehydrogenase (LDH) release test.

[5] = tested on: murine squamous carcinoma cell line (SCCVII); test: SCCVII floor-of-mouth tumor growth, oral rhLF and/or radiotherapy; format: in vivo, C3H mice
Description: A murine squamous carcinoma cell line (SCCVII) was injected into the floor of mouth through the neck skin of immunocompetent C3H mice (Day 0). […] Tumors were measured in three dimensions with calipers.
Tumor-bearing mice were randomized into six groups receiving rhLF (200 mg/Kg) and/or radiotherapy as described below. RhLF (4 mg; 200 mg/kg) was administered by oral gavage once daily for 8 days on days 5 through 12. Radiotherapy was administered as single dose of 2 Gray given at the beginning (day 5) or at during (day 8) rhLF-therapy. Animals were sacrificed on day 14 post-treatment and the residual tumor masses were measured and processed for later additional analyses.

[6] = tested on: IL-18; test: IL-18 levels in small intestine and serum after oral rhLF or bLF (ELISA); format: in vivo, mice; conditions: for IL-18 level, Intestinal Extract / IL-18 level, Serum: 24 h after last dose
Description: Recombinant human lactoferrin and bovine lactoferrin were orally administered to mice, and the production of IL-18 in the small intestine was measured.
Mice were treated for three days daily with 65 mg/kg/day of rhLF, 300 mg/kg/day of rhLF or 300 mg/kg/day of bLF. For a control, mice were only administered the pharmaceutical carrier. Twenty-four hours following administration of the LF or control for 3 days, animals were weighed and blood and serum were collected. Serum was used for cytokine ELISA assays.
Also, at these time points, animals were sacrificed and the small intestinal tissue was removed for further analysis. Small intestinal epithelium was homogenized using a lysis buffer consisting of PBS, 1% Nonidet P-40, 0.5% sodium deoxycholate, and 0.1% sodium dodecyl sulphate containing 10 μg/ml PhenylMetheylsulfonyl fluoride. Homogenate was centrifuged at 15,000 rpm for 10 minutes and the supernatant stored at −80 C till it was tested for IL-18 levels.

[7] = oral 65 mg/kg/day for three days
[8] = oral 65 mg/kg/day rhLF versus 300 mg/kg bLF
[9] = oral 300 mg/kg/day for three days
[10] = oral 300 mg/kg/day rhLF versus 300 mg/kg bLF

B1: rhLF: recombinant human lactoferrin, a single chain metal binding glycoprotein (protein, UniProt P02788 20-710, looked up)
Lactotransferrin: GRRRSVQWCAVSQPEATKCFQWQRNMRKVRGPPVSCIKRDSPIQCIQAIAENRADAVTLDGGFIYEAGLAPYKLRPVAAEVYGTERQPRTHYYAVAVVKKGGSFQLNELQGLKSCHTGLRRTAGWNVPIGTLRPFLNWTGPPEPIEAAVARFFSASCVPGADKGQFPNLCRLCAGTGENKCAFSSQEPYFSYSGAFKCLRDGAGDVAFIRESTVFEDLSDEAERDEYELLCPDNTRKPVDKFKDCHLARVPSHAVVARSVNGKEDAIWNLLRQAQEKFGKDKSPKFQLFGSPSGQKDLLFKDSAIGFSRVPPRIDSGLYLGSGYFTAIQNLRKSEEEVAARRARVVWCAVGEQELRKCNQWSGLSEGSVTCSSASTTEDCIALVLKGEADAMSLDGGYVYTAGKCGLVPVLAENYKSQQSSDPDPNCVDRPVEGYLAVAVVRRSDTSLTWNSVKGKKSCHTAVDRTAGWNIPMGLLFNQTGSCKFDEYFSQSCAPGSDPRSNLCALCIGDEQGENKCVPNSNERYYGYTGAFRCLAENAGDVAFVKDVTVLQNTDGNNNEAWAKDLKLADFALLCLDGKRKPVTEARSCHLAMAPNHAVVSRMDKVERLKQVLLHQQAKFGRNGSDCPDKFCLFQSETKNLLFNDNTECLARLHGKTTYEKYLGPQYVAGITNLKKCSTSPLLEACEFLRK
B1 was tested, and the “GM-CSF Increase over Placebo” value [1] was 19.4% (p < 0.01), the “GM-CSF level, Mean (SEM)” value ([1]; 5 animals per group) was 7.74 (0.19) pg and the “TGI (%) Relative to Placebo” value [2] was 33%. For the same molecule, the “reduction of rates of tumor growth versus pooled placebo” value ([3]; Group A, single intratumoral dose (100-500 μg), day 11 after the administration) was 50%, the “reduction of rates of tumor growth versus pooled control group” value ([3]; Group C, intratumoral twice daily for 8 days (25-500 μg per dose)) was 56% and the “relative increase of NK activity over placebo-treated animals” value ([4]; 30:1 E:T ratio) was 243%. The “% Cytotoxicity Increased over ctrl” value ([4]; E:T ratio 3.7:1, versus placebo group) was 0%, the “% Cytotoxicity Increased over ctrl” value ([4]; E:T ratio 7.5:1, versus placebo group) was 0% and the “% Cytotoxicity Increased over ctrl” value ([4]; E:T ratio 15:1, versus placebo group) was 1.3%. The “% Cytotoxicity Increased over ctrl” value ([4]; E:T ratio 30:1, versus placebo group) was 7** %, the “% Cytotoxicity Final (NK activity)” value ([4]; E:T ratio 3.7:1) was 0% and the “% Cytotoxicity Final (NK activity)” value ([4]; E:T ratio 7.5:1) was 0.44%. The “% Cytotoxicity Final (NK activity)” value ([4]; E:T ratio 15:1) was 4.12%, the “% Cytotoxicity Final (NK activity)” value ([4]; E:T ratio 30:1, 300 mg/kg/day) was 10% and 9.81% and the “increase in TGI over monotherapy with radiation” value ([5]; both rhLF and radiation) was 15%. For the same molecule, the “increase in TGI over monotherapy with rhLF” value ([5]; both rhLF and radiation) was 28%, the “Inhibition Relative to Placebo” value ([5]; rhLF 200 mg/kg oral days 5-12 plus 2 Gray on day 5) was 68% and the “Inhibition Relative to Placebo” value ([5]; rhLF 200 mg/kg oral days 5-12 plus 2 Gray on day 8) was 66%. For the same molecule, the “Inhibition Relative to Placebo” value ([5]; rhLF 200 mg/kg oral days 5-12 plus 2 Gray, both radiation schedules pooled) was 67%, the “Inhibition Relative to Placebo” value ([5]; rhLF 200 mg/kg oral once daily days 5-12, no radiation) was 54% and the “IL-18 Intestinal Extract % Increase Over Control” value [6, 7] was 725%. For the same molecule, the “IL-18 Serum % Increase Over Control” value [6, 7] was 84%, the “IL-18 level, Intestinal Extract” value [6, 7] was 7,879 pg and the “IL-18 level, Serum” value [6, 7] was 259 pg. For the same molecule, the “IL-18 Intestinal Extract % Increase Over Blf” value [6, 8] was 75%, the “IL-18 Serum % Increase Over Blf” value [6, 8] was 94% and the “IL-18 Intestinal Extract % Increase Over Control” value [6, 9] was 775%. For the same molecule, the “IL-18 Serum % Increase Over Control” value [6, 9] was 132%, the “IL-18 level, Intestinal Extract” value [6, 9] was 8,350 pg and the “IL-18 level, Serum” value [6, 9] was 328 pg. The “IL-18 Intestinal Extract % Increase Over Blf” value [6, 10] was 85%, the “IL-18 Serum % Increase Over Blf” value [6, 10] was 145% and the “amounts of IL-18 in both the serum and in the intestinal extract” value ([6]; oral, both doses (65 and 300 mg/kg/day)) was “significantly enhanced”.
